Data as given in patent publication US20250109182A1 (KITE PHARMA, published 2025).

B1: Construct CAR 1 (GPC3 scFv + 4-1BB intracellular domain + CD3ζ intracellular domain), GPC3-CAR encoded by the codon-optimized sequence of SEQ ID NO: 51 (other)
chain: DIVMTQSPDSLAVSLGERATINCKSSQSLLYSSNQKNYLAWYQQKPGQPPKLLIYWASSRESGVPDRFSGSGSGTDFTLTISSLQAEDVAVYYCQQYYNYPLTFGQGTKLEIKGSTSGSGKPGSGEGSTKGEVQLVESGGGLVQPGGSLRLSCAASGFTFNKNAMNWVRQAPGKGLEWVGRIRNKTNNYATYYADSVKARFTISRDDSKNSLYLQMNSLKTEDTAVYYCVAGNSFAYWGQGTLVTVSSGSTTTPAPRPPTPAPTIASQPLSLRPEACRPAAGGAVHTRGLDFACDIYIWAPLAGTCGVLLLSLVITLYCKRGRKKLLYIFKQPFMRPVQTTQEEDGCSCRFPEEEEGGCELRVKFSRSADAPAYQQGQNQLYNELNLGRREEYDVLDKRRGRDPEMGGKPRRKNPQEGLYNELQKDKMAEAYSEIGMKGERRRGKGHDGLYQGLSTATKDTYDALHMQALPPR
notes: Chimeric antigen receptor expressed on transduced primary human CD3+ T cells; also called GPC3-CAR construct
B2: engineered, dominant-negative TGF-β receptor Type 1 (DN TGF-βRI) construct of SEQ ID NO: 10 (receptor)
chain: LQCFCHLCTKDNFTCVTDGLCFVSVTETTDKVIHNSMCIAEIDLIPRDRPFVCAPSSKTGSVTTTYCCNQDHCNKIELPTTVKSSPGLGPVELAAVIAGPVCFVCISLMLMVYIRVNRQ

Key:
[1] = target: T1, recombinant human GPC3 (rhGPC3) fluorescently conjugated to DyLight 650 (human, UniProt P51654 25-559, limits assumed, fluorescently conjugated to DyLight 650); experiment: flow cytometry; rhGPC3-DyLight 650 staining of CAR+ T cells
T1 construct: Soluble staining reagent for flow cytometry, diluted 1:200; also called Glypican-3
T1 sequence (P51654 25-559 limits assumed): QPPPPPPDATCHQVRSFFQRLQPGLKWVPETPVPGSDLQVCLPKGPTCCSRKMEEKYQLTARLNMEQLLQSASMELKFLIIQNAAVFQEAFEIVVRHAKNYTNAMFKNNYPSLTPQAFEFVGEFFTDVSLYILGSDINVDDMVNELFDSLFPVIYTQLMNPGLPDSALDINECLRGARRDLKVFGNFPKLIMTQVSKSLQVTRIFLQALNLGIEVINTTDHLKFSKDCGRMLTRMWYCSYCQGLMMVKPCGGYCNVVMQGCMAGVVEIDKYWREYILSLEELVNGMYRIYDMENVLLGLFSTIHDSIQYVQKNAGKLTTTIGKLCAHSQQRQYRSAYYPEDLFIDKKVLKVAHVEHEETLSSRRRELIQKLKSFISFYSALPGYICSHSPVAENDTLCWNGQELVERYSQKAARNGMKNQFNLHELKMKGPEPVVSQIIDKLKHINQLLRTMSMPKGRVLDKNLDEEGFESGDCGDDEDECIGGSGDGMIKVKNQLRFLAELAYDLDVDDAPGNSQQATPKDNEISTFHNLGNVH
Source text: (§1) Similar to the previous trials, CD3⁺ cells were isolated from primary human peripheral blood mononuclear cells (PBMCs) and transduced with the GPC3 CAR constructs above in the presence of polybrene and at a multiplicity of infection of two, based on expression titer in Jurkat cells. At the end of manufacturing, cells were frozen down in Cryostor® CS5 and stored in liquid nitrogen until thawing. Upon thawing, cells were rested in T cell culture medium overnight with 100 UI/mL IL-2, washed, and stained with Live/Dead™ Violet diluted at 1:1000, recombinant human GPC3 (rhGPC3) fluorescently conjugated to DyLight™ 650 diluted at 1:200, and anti-CD3 BV650 at 1:100 in PBS for 30 min at 4° C. The DNA of a pellet of 1×10⁵ cells was extracted in QuickExtract™ Buffer, frozen, and used to measure average vector copy number (VCN) by droplet digital PCR quantifying frequency of integrated virus per cell. Percentage CAR+ cells are defined as percentage of cells staining with rhGPC3 amongst Live/Dead™ negative, CD3⁺ positive cells, and Mean Fluorescence Intensity (MFI) of CAR⁺, and Vector copy number (VCN) are given in the example. […] Construct CAR 1 also has higher MFI of CAR⁺ cells, which could indicate more efficient expression or higher affinity of the CAR to rhGPC3.

[2] = target: T1, recombinant human GPC3 (rhGPC3) …; experiment: flow cytometry; transduced T cells stained with rhGPC3-DyLight 650 at 1:200; gated live CD3+
Source text: as §1

[3] = target: TGF-β Receptor Type II (TGF-βRII), endogenous wild-type, in primary human T cells (human, UniProt P37173 23-567); experiment: cell-based or functional assay
Sequence of TGF-β Receptor Type II (TGF-βRII), endogenous wild-type, in primary human T cells (P37173 23-567): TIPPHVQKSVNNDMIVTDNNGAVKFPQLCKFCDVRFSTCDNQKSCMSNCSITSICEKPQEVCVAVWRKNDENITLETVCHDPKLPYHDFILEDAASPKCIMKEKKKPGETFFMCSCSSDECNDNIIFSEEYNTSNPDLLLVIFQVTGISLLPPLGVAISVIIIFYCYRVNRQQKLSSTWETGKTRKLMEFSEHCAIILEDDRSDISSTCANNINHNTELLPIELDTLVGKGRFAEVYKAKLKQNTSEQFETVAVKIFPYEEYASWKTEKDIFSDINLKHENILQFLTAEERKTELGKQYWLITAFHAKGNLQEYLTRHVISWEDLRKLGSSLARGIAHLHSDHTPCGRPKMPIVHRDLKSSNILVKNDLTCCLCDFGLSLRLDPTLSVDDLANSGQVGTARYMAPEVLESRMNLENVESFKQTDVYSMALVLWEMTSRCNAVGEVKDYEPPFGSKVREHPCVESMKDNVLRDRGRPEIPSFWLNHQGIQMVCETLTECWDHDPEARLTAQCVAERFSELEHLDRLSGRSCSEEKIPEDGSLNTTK

Binder | MFI CAR + [1] | % CAR + (percentage of cells staining with rhGPC3) [2] | fold less induction of pSMAD2 and pSMAD3 versus PSMA CAR only, TGF-β1 stimulated T cells [3] | fold less induction of pSMAD2 versus CD19 CAR only, TGF-β1 stimulated T cells [3] | fold less induction of pSMAD2 versus GPC3 CAR only, 4-1BB co-stimulation, TGF-β1 stimulated T cells [3] | fold less induction of pSMAD3 versus CD19 CAR only, TGF-β1 stimulated T cells [3] | fold less induction of pSMAD3 versus GPC3 CAR only, 4-1BB co-stimulation, TGF-β1 stimulated T cells [3]
B1 | 21100 MFI | 93.4% | – | – | – | – | –
B2 | – | – | ~2 fold | ~4 fold | ~3 fold | ~2 fold | ~1.3 fold
